Experiment [1] has as its target T1, VEGF(8-109) (UniProt P15692 214-315).
T1 construct: range 8-109; Covalently coupled to the BIACORE chip (EDC/NHS); also called vascular endothelial growth factor
T1 sequence (looked up): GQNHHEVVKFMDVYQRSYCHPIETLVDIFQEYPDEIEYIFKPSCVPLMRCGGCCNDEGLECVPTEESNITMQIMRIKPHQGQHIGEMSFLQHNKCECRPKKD
As to the kind of experiment: SPR (BIACORE-2000); reference (wt) is Y0192. Here is the method: (§1) BIACORE™ Analysis: The VEGF-binding affinities of Fab fragments were calculated from association and dissociation rate constants measured using a BIACORE™-2000 surface plasmon resonance system (BIACORE™, Inc., Piscataway, N.J.). A biosensor chip was activated for covalent coupling of VEGF using N-ethyl-N′-(3-dimethylaminopropyl)-carbodiimide hydrochloride (EDC) and N-hydroxysuccinimide (NHS) according to the supplier's (BIACORE™, Inc., Piscataway, N.J.) instructions. VEGF(8-109) was buffered exchanged into 20 mM sodium acetate, pH 4.8 and diluted to approximately 50 μg/mL. Aliquots of VEGF were injected at a flow rate of 2 μL/min to achieve approximately 700-1400 response units (RU) of coupled protein. A solution of 1 M ethanolamine was injected as a blocking agent.
(§2) For kinetics measurements, two-fold serial dilutions of Fab were injected in PBS/TWEEN buffer (0.05% TWEEN 20™ in phosphate buffered saline) at 25° C. at a flow rate of 10 μL/min. Equilibrium dissociation constants, Kd's from SPR measurements were calculated as koff/kon (Table 17).

Experiment [2] has as its target T1, VEGF(8-109). Put plainly: SPR (BIACORE-2000), Kd calculated as koff/kon. Here is the method:
as §1, §2

For experiment [3], the target named is T1, VEGF(8-109). As to the kind of experiment: SPR (BIACORE-2000), Fab injected over immobilised VEGF(8-109), 25 C. Here is the method: as §1, §2
Background: Surface plasmon resonance follows binding to a sensor surface in real time, without labels.

For experiment [4], the target named is T2, VEGF (recombinant; version 1-165) (UniProt P15692 27-191). Put plainly: cell-based or functional assay.
Experiment [5] deals with T2, VEGF (recombinant; version 1-165). As to the kind of experiment: cell-based or functional assay. This is another data set of the same source.

T2 sequence (P15692 other isoform, or with tags, fused parts or gaps limits assumed): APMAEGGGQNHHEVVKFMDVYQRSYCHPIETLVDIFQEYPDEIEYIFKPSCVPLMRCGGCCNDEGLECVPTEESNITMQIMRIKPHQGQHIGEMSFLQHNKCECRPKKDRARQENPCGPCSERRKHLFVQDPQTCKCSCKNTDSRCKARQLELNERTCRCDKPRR

B1: Y0239-19 Fab (Fab, V domains shown)
VH: EVQLVESGGGLVQPGGSLRLSCAASGYTFTNYGMNWVRQAPGKGLEWVGWINTYTGEPTYAADFKRRFTFSLDTSKSTAYLQMNSLRAEDTAVYYCAKYPHYYVNERKSHWYFDVWGQGTL
VL: DIQLTQSPSSLSASVGDRVTITCRANEQLSNYLNWYQQKPGKAPKVLIYFTSSLHSGVPSRFSGSGSGTDFTLTISSLQPEDFATYYCQQYSTVPWTFGQGTKVEIKR
notes: also called insertion variant with the VNERK motif
Broadly, the Kd is the equilibrium constant for the complex coming apart. Usually koff stands for the rate constant with which the complex falls apart. One may read the kon as the rate constant with which the complex forms. On to B1, for which, in the experiment with VEGF(8-109) [1], the “Kd(wt)/Kd(mut)” value came to 9.7 ratio. In addition, in the experiment with VEGF(8-109) [2], the dissociation constant (Kd) was at most 0.3 nM. Besides, in the experiment with VEGF(8-109) [3], the koff is at most 1e-05 s⁻¹ and the kon came out at 36000 M⁻¹ s⁻¹.

B2: Y0239-9 Fab (Fab, V domains shown)
VH: EVQLVESGGGLVQPGGSLRLSCAASGYTFTNYGMNWVRQAPGKGLEWVGWINTYTGEPTYAADFKRRFTFSLDTSKSTAYLQMNSLRAEDTAVYYCAKYPHYYLGESSHWYFDVWGQGTL
VL: DIQLTQSPSSLSASVGDRVTITCRANEQLSNYLNWYQQKPGKAPKVLIYFTSSLHSGVPSRFSGSGSGTDFTLTISSLQPEDFATYYCQQYSTVPWTFGQGTKVEIKR
notes: Only three residues stand in place of G104, although the library was designed with four or five
Turning to B2, the “Kd(wt)/Kd(mut)” value in the experiment with VEGF(8-109) [1] came to 6 ratio. Also, the dissociation constant Kd in the experiment with VEGF(8-109) [2] is 0.5 nM. Further, in the experiment with VEGF(8-109) [3], the koff worked out at 1.9e-05 s⁻¹ and the kon is 39700 M⁻¹ s⁻¹.

B3: Y0239-8 Fab (Fab, V domains shown)
VH: EVQLVESGGGLVQPGGSLRLSCAASGYTFTNYGMNWVRQAPGKGLEWVGWINTYTGEPTYAADFKRRFTFSLDTSKSTAYLQMNSLRAEDTAVYYCAKYPHYYLRDGRSSHWYFDVWGQGTL
VL: DIQLTQSPSSLSASVGDRVTITCRANEQLSNYLNWYQQKPGKAPKVLIYFTSSLHSGVPSRFSGSGSGTDFTLTISSLQPEDFATYYCQQYSTVPWTFGQGTKVEIKR
With B3, the “Kd(wt)/Kd(mut)” value with VEGF(8-109) [1] is 5.8 ratio. The Kd in the experiment with VEGF(8-109) [2] was 0.5 nM. In the experiment with VEGF(8-109) [3], this molecule gave a koff of 1.8e-05 s⁻¹ and a kon of 38000 M⁻¹ s⁻¹.

B4: Y0261-6 Fab (Fab, V domains shown)
VH: EVQLVESGGGLVQPGGSLRLSCAASGYTFTNYGMNWVRQAPGKGLEWVGWINTYTGEPTYAADFKRRFTFSLDTSKSTAYLQMNSLRAEDTAVYYCAKYPHYYLKDKKSHWYFDVWGQGTL
VL: DIQLTQSPSSLSASVGDRVTITCRANEQLSNYLNWYQQKPGKAPKVLIYFTSSLHSGVPSRFSGSGSGTDFTLTISSLQPEDFATYYCQQYSTVPWTFGQGTKVEIKR
Turning to B4, the “Kd(wt)/Kd(mut)” value with VEGF(8-109) [1] is 5 ratio. Moreover, the dissociation constant Kd with VEGF(8-109) [2] was 0.6 nM. Further, in the experiment with VEGF(8-109) [3], the koff is 2.5e-05 s⁻¹ and the on-rate constant (kon) came to 44000 M⁻¹ s⁻¹.

B5: Y0313-2 Fab (Fab, V domains shown)
VH: EVQLVESGGGLVQPGGSLRLSCAASGYDFTHYGMNWVRQAPGKGLEWVGWINTYTGEPTYAADFKRRFTFSLDTSKSTAYLQMNSLRAEDTAVYYCAKYPHYYVNERKSHWYFDVWGQGTL
VL: DIQLTQSPSSLSASVGDRVTITCRANEQLSNYLNWYQQKPGKAPKVLIYFTSSLHSGVPSRFSGSGSGTDFTLTISSLQPEDFATYYCQQYSTVPWTFGQGTKVEIKR
notes: Combines the CDR H3 insertion of Y0239-19 (VNERK) with T28D/N31H; also called CDR combination variant Y0313-2; Insert-Fab Y0313-2
Regarding B5, the “inhibition of VEGF-induced growth of HuVECs (alamar blue assay)” value in experiment [4] was around 100 fold. Besides, in experiment [5], the “IC50 (read off the curve); VEGF-induced HuVEC growth, alamar blue” value was around 3 ng/mL. In addition, in the experiment with VEGF(8-109) [1], the “Kd(wt)/Kd(mut)” value is 8 ratio. In the experiment with VEGF(8-109) [2], the Kd was 0.36 nM. In addition, in the experiment with VEGF(8-109) [3], the koff is 1.1e-05 s⁻¹ and the association rate constant (kon) was found to be 31100 M⁻¹ s⁻¹.

B6: Y0239-2 Fab (Fab, V domains shown)
VH: EVQLVESGGGLVQPGGSLRLSCAASGYTFTNYGMNWVRQAPGKGLEWVGWINTYTGEPTYAADFKRRFTFSLDTSKSTAYLQMNSLRAEDTAVYYCAKYPHYYKNDKSSHWYFDVWGQGTL
VL: DIQLTQSPSSLSASVGDRVTITCRANEQLSNYLNWYQQKPGKAPKVLIYFTSSLHSGVPSRFSGSGSGTDFTLTISSLQPEDFATYYCQQYSTVPWTFGQGTKVEIKR
For the molecule B6, the “Kd(wt)/Kd(mut)” value in the experiment with VEGF(8-109) [1] was 0.6 ratio. Besides, the equilibrium dissociation constant (Kd) with VEGF(8-109) [2] is 4.6 nM. Besides, in the experiment with VEGF(8-109) [3], the koff was 0.000164 s⁻¹ and the kon was 36000 M⁻¹ s⁻¹.

B7: Y0241-7 Fab (Fab, V domains shown)
VH: EVQLVESGGGLVQPGGSLRLSCAASGYDWTNYGINWVRQAPGKGLEWVGWINTYTGEPTYAADFKRRFTFSLDTSKSTAYLQMNSLRAEDTAVYYCAKYPHYYGSSHWYFDVWGQGTL
VL: DIQLTQSPSSLSASVGDRVTITCRANEQLSNYLNWYQQKPGKAPKVLIYFTSSLHSGVPSRFSGSGSGTDFTLTISSLQPEDFATYYCQQYSTVPWTFGQGTKVEIKR
notes: Clone from library YC-86, made on the Y0192 template; The text names point mutations only at T28 and F29; The printed stretch ends in GIN, so residue 34 may also differ from the parent; this change is not applied here
Regarding B7, the “Kd(wt)/Kd(mut)” value with VEGF(8-109) [1] turned out to be 1 ratio. In addition, the Kd in the experiment with VEGF(8-109) [2] is 3 nM. In the experiment with VEGF(8-109) [3], this molecule displayed a koff of 0.000128 s⁻¹ and a kon of 46000 M⁻¹ s⁻¹.

B8: Y0239-12 Fab (Fab, V domains shown)
VH: EVQLVESGGGLVQPGGSLRLSCAASGYTFTNYGMNWVRQAPGKGLEWVGWINTYTGEPTYAADFKRRFTFSLDTSKSTAYLQMNSLRAEDTAVYYCAKYPHYYAHEKKSHWYFDVWGQGTL
VL: DIQLTQSPSSLSASVGDRVTITCRANEQLSNYLNWYQQKPGKAPKVLIYFTSSLHSGVPSRFSGSGSGTDFTLTISSLQPEDFATYYCQQYSTVPWTFGQGTKVEIKR
For B8, the “Kd(wt)/Kd(mut)” value with VEGF(8-109) [1] is 4.8 ratio. Besides, in the experiment with VEGF(8-109) [2], the Kd was 0.6 nM. In the experiment with VEGF(8-109) [3], the dissociation rate constant (koff) came out at 3.4e-05 s⁻¹ and the on-rate (kon) is 57000 M⁻¹ s⁻¹.

B9: Y0240-1 Fab (Fab, V domains shown)
VH: EVQLVESGGGLVQPGGSLRLSCAASGYTFTNYGMNWVRQAPGKGLEWVGWINTYTGEPTYAADFKRRFTFSLDTSKSTAYLQMNSLRAEDTAVYYCAKYPHYYLTDHKSHWYFDVWGQGTL
VL: DIQLTQSPSSLSASVGDRVTITCRANEQLSNYLNWYQQKPGKAPKVLIYFTSSLHSGVPSRFSGSGSGTDFTLTISSLQPEDFATYYCQQYSTVPWTFGQGTKVEIKR
Consider B9, for which, in the experiment with VEGF(8-109) [1], the “Kd(wt)/Kd(mut)” value was 5.8 ratio. Also, the equilibrium dissociation constant (Kd) in the experiment with VEGF(8-109) [2] is 0.5 nM. For the same molecule, in the experiment with VEGF(8-109) [3], the koff was found to be 1.3e-05 s⁻¹ and the on-rate (kon) turned out to be 25000 M⁻¹ s⁻¹.

B10: Y0241-6 Fab (Fab, V domains shown)
VH: EVQLVESGGGLVQPGGSLRLSCAASGYDYTNYGINWVRQAPGKGLEWVGWINTYTGEPTYAADFKRRFTFSLDTSKSTAYLQMNSLRAEDTAVYYCAKYPHYYGSSHWYFDVWGQGTL
VL: DIQLTQSPSSLSASVGDRVTITCRANEQLSNYLNWYQQKPGKAPKVLIYFTSSLHSGVPSRFSGSGSGTDFTLTISSLQPEDFATYYCQQYSTVPWTFGQGTKVEIKR
notes: as for B7
For B10, the “Kd(wt)/Kd(mut)” value with VEGF(8-109) [1] came out at 1.1 ratio. The Kd with VEGF(8-109) [2] was 2.7 nM. Further, in the experiment with VEGF(8-109) [3], the koff was 0.000129 s⁻¹ and the kon was 47000 M⁻¹ s⁻¹.

B11: Y0242-1 Fab (Fab, V domains shown)
VH: EVQLVESGGGLVQPGGSLRLSCAASGYTFTNYGMNWVRQAPGKGLEWVGWINTWTGEPTYAADFKRRFTFSLDTSKSTAYLQMNSLRAEDTAVYYCAKYPHYYGSSHWYFDVWGQGTL
VL: DIQLTQSPSSLSASVGDRVTITCRANEQLSNYLNWYQQKPGKAPKVLIYFTSSLHSGVPSRFSGSGSGTDFTLTISSLQPEDFATYYCQQYSTVPWTFGQGTKVEIKR
notes: Clone from library YC-90, made on the Y0192 template; also called point mutant Y54W
With B11, in the experiment with VEGF(8-109) [1], the “Kd(wt)/Kd(mut)” value was 1.6 ratio. The Kd with VEGF(8-109) [2] was 1.8 nM. Further, in the experiment with VEGF(8-109) [3], the koff stood at 8.6e-05 s⁻¹ and the on-rate constant (kon) was 47000 M⁻¹ s⁻¹.

(Values after patent publication US20040086502A1 (Genentech, published 2004).)
